Results from article PMC11087952, “Biochemical characterization of Escherichia coli DnaC variants that alter DnaB helicase loading onto DNA” (The Journal of Biological Chemistry, 2024).

How the values were obtained:
DnaC 809 = target: T1, DnaC 809 (Escherichia coli, UniProt P0AEF0 1-245, E176G); experiment: fluorescence anisotropy; 5 mM Mg2+, 2 mM ATP; similar to wild-type; 50 mM HEPES-KOH pH 7.5, 125 mM KCl, 10% glycerol, 5 mM MgCl2, 2 mM ATP, 2 mM DTT, 0.1 mg/ml BSA, 10 nM DNA, 0-50 uM DnaC; 37 C 15 min, read at 25 C; saturation; settings: protein: recombinant; tags: 6XHis-MBP, TEV cleaved; periplasmic localization signal on expression construct; single strand
T1 sequence: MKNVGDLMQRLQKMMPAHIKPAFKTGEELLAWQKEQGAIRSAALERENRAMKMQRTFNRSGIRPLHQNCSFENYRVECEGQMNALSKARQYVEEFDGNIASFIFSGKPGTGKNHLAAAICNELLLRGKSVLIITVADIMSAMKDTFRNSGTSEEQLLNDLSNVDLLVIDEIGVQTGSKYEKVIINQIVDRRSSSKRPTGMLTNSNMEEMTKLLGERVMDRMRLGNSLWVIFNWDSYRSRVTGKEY

DnaC 1331 = target: T2, DnaC 1331 (Escherichia coli, UniProt P0AEF0 1-245, A84T); experiment: as above; settings: protein: recombinant; tags: 6XHis-MBP, TEV cleaved; periplasmic localization signal on expression construct; single strand
T2 sequence: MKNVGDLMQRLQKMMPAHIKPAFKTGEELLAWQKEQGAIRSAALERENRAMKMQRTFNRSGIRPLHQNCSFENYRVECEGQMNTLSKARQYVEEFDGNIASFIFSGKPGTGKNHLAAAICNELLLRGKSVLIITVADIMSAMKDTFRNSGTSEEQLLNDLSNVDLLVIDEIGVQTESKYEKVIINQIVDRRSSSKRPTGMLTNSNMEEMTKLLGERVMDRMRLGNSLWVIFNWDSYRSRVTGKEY

DnaC 809,820 = target: T3, DnaC 809,820 (Escherichia coli, UniProt P0AEF0 1-245, E176G;K178N); experiment: as above; settings: protein: recombinant; tags: 6XHis-MBP, TEV cleaved; periplasmic localization signal on expression construct; single strand
T3 sequence: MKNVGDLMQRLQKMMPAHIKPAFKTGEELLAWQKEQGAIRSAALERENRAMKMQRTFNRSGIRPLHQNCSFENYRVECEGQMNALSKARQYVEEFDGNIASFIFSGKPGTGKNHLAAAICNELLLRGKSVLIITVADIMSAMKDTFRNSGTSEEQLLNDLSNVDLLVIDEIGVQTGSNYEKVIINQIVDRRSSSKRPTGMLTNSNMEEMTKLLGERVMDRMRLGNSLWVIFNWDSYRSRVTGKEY

DnaC (wild-type) = target: T4, DnaC (wild-type) (Escherichia coli, UniProt P0AEF0 1-245); experiment: fluorescence anisotropy; 5 mM Mg2+, 2 mM ATP; 50 mM HEPES-KOH pH 7.5, 125 mM KCl, 10% glycerol, 5 mM MgCl2, 2 mM ATP, 2 mM DTT, 0.1 mg/ml BSA, 10 nM DNA, 0-50 uM DnaC; 37 C 15 min, read at 25 C; saturation; settings: protein: recombinant; tags: 6XHis-MBP removed by TEV; single strand
T4 sequence: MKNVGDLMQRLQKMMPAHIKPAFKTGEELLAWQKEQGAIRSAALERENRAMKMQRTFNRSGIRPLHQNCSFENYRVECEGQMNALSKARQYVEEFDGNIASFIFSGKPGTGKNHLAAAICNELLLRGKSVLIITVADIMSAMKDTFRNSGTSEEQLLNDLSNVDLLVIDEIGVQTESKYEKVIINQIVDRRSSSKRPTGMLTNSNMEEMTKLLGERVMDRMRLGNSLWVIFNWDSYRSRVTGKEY

[1] = target: T5, Escherichia coli DnaB replicative helicase (wild-type) (E. coli, UniProt P0ACB0 1-471); experiment: SEC; 10 nmol DnaB and 12 nmol DnaC (1.2:1 DnaC:DnaB) in 20 mM Tris-HCl pH 8.5, 0.2 M NaCl, 5 mM MgCl2, 1 mM BME, 1 mM ATP; analytical size exclusion column (Increase 10/300 GL); peak fractions analysed by PAGE for DnaB and DnaC; settings: both partners purified
T5 construct: DnaB replicative DNA helicase, E. coli, wild-type; The introduction describes DnaB as a closed ring-shaped hexamer; also called DnaB helicase
T5 sequence (P0ACB0 whole entry): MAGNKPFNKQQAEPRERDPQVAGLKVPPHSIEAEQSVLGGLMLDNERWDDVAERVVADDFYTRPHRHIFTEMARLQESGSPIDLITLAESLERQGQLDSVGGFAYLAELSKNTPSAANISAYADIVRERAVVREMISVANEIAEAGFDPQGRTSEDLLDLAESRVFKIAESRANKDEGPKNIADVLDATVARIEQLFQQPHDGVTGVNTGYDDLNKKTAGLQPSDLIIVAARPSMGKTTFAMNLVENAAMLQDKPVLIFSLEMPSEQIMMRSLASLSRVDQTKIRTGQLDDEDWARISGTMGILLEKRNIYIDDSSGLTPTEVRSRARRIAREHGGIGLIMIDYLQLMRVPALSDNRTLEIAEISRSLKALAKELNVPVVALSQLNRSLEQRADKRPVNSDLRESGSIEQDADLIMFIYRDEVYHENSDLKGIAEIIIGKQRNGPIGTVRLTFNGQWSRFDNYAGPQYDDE

B1: dT20 (ssDNA)
DNA: TTTTTTTTTTTTTTTTTTTT
- binding result (DnaC 809): binds
- binding result (DnaC 1331): binds
- binding result (DnaC 809,820): binds
- binding result (DnaC (wild-type)): binds

B2: DnaC 809 (E176G) (natural protein, E. coli, UniProt P0AEF0 1-245, looked up)
chain: MKNVGDLMQRLQKMMPAHIKPAFKTGEELLAWQKEQGAIRSAALERENRAMKMQRTFNRSGIRPLHQNCSFENYRVECEGQMNALSKARQYVEEFDGNIASFIFSGKPGTGKNHLAAAICNELLLRGKSVLIITVADIMSAMKDTFRNSGTSEEQLLNDLSNVDLLVIDEIGVQTGSKYEKVIINQIVDRRSSSKRPTGMLTNSNMEEMTKLLGERVMDRMRLGNSLWVIFNWDSYRSRVTGKEY
notes: DnaC helicase loader, E. coli, with E176G; Point mutation introduced by site-directed mutagenesis; the allele was first isolated as a suppressor of priA deficiency; also called product of dnaC809
- binding result [1]: binds

B3: DnaC 811 (I184F) (natural protein, E. coli, UniProt P0AEF0 1-245, looked up)
chain: MKNVGDLMQRLQKMMPAHIKPAFKTGEELLAWQKEQGAIRSAALERENRAMKMQRTFNRSGIRPLHQNCSFENYRVECEGQMNALSKARQYVEEFDGNIASFIFSGKPGTGKNHLAAAICNELLLRGKSVLIITVADIMSAMKDTFRNSGTSEEQLLNDLSNVDLLVIDEIGVQTESKYEKVIFNQIVDRRSSSKRPTGMLTNSNMEEMTKLLGERVMDRMRLGNSLWVIFNWDSYRSRVTGKEY
notes: DnaC helicase loader, E. coli, with I184F; Point mutation introduced by site-directed mutagenesis; also called product of dnaC811
- binding result [1]: binds

B4: DnaC 809,820 (E176G, K178N) (natural protein, E. coli, UniProt P0AEF0 1-245, looked up)
chain: MKNVGDLMQRLQKMMPAHIKPAFKTGEELLAWQKEQGAIRSAALERENRAMKMQRTFNRSGIRPLHQNCSFENYRVECEGQMNALSKARQYVEEFDGNIASFIFSGKPGTGKNHLAAAICNELLLRGKSVLIITVADIMSAMKDTFRNSGTSEEQLLNDLSNVDLLVIDEIGVQTGSNYEKVIINQIVDRRSSSKRPTGMLTNSNMEEMTKLLGERVMDRMRLGNSLWVIFNWDSYRSRVTGKEY
notes: DnaC helicase loader, E. coli, with E176G and K178N; Point mutations introduced by site-directed mutagenesis; also called product of dnaC809,820
- binding result [1]: binds
